The text below walks through data of patent publication US20150247163.

For series [1], the target named is T1, PBS1^RCS2-HA (PBS1 in which the AvrPphB cleavage site GDKSHVS is replaced with the RIN4 cleavage site 2 VPKFGDW, fused to a C-terminal 3xHA epitope).
T1 chain: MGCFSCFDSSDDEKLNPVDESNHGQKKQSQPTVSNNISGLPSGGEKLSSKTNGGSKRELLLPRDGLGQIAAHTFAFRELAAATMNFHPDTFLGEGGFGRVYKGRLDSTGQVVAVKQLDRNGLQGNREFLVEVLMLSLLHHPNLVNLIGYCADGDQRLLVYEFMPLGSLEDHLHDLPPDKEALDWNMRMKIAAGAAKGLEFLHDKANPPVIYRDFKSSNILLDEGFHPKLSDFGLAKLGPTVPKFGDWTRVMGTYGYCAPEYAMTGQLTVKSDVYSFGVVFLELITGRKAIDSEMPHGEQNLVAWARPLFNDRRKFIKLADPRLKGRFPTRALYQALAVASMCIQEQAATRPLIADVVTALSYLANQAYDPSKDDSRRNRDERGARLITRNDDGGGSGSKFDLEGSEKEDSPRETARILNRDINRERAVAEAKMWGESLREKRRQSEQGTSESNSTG

The target of series [2] is T2, PBS1^TCS-HA (PBS1 in which the seven amino acids flanking the AvrPphB cleavage site are replaced with a TEV cleavage site, fused to 3xHA).
T2 chain: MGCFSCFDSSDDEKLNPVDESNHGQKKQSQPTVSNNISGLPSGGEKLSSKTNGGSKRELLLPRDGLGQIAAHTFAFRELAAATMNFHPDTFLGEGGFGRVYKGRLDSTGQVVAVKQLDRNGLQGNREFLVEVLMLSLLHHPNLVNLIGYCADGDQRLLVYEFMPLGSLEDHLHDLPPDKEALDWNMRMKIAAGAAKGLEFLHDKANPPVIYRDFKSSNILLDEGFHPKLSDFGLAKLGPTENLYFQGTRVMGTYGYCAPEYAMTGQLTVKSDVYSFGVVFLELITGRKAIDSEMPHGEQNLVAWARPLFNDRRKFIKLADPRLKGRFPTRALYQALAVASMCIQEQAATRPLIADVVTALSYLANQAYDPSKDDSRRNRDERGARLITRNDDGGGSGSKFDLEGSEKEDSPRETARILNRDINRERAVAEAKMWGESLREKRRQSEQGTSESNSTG

Series [3] addresses T3, wild-type PBS1 (AvrPphB susceptible 1), Q9FE20.
T3 chain: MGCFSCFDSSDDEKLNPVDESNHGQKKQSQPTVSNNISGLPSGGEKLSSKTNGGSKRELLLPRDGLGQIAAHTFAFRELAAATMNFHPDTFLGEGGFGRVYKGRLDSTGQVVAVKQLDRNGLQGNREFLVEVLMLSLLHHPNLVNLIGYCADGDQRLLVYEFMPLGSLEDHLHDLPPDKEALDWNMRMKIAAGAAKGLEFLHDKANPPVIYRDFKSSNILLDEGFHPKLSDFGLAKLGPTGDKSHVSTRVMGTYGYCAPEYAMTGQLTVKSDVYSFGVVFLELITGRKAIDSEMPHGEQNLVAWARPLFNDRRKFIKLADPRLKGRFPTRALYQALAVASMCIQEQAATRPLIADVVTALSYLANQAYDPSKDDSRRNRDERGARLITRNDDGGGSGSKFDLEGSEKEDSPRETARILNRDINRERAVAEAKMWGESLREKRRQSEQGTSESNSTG

B1: AvrRpt2 (Example 1 pTA7002 construct; also as delivered by P. syringae DC3000(avrRpt2)) (protein)
chain: MKIAPVAINHSPLSREVPSHAAPTQAKQTNLQSEAGDLDARKSSASSPETRALLATKTVLGRHKIEVPAFGGWFKKKSSKHETGGSSANADSSSVASDSTEKPLFRLTHVPYVSQGNERMGCWYACARMVGHSVEAGPRLGLPELYEGREGPAGLQDFSDVERFIHNEGLTRVDLPDNERFTHEELGALLYKHGPIIFGWKTPNDSWHMSVLTGVDKETSSITFHDPRQGPDLAMPLDYFNQRLAWQVPHAMLYR
B1: in series [1], the “cleavage product by anti-HA immunoprecipitation and immunoblot, transgenic Arabidopsis line #5, 12 hours after inoculation” value is “a cleavage product of PBS1^RCS2 was detected in transgenic line #5 twelve hours after inoculation with DC3000(avrRpt2), but not with DC3000 lacking avrRpt2”.

B2: AvrRpt2 fused to 5xMyc (Example 5 construct) (protein)
chain: MKIAPVAINHSPLSREVPSHAAPTQAKQTNLQSEAGDLDARKSSASSPETRALLATKTVLGRHKIEVPAFGGWFKKKSSKHETGGSSANADSSSVASDSTEKPLFRLTHVPYVSQGNERMGCWYACARMVGHSVEAGPRLGLPELYEGREGPAGLQDFSDVERFIHNEGLTRVDLPDNERFTHEELGALLYKHGPIIFGWKTPNDSWHMSVLTGVDKETSSITFHDPRQGPDLAMPLDYFNQRLAWQVPHAMLYR
Take B2: in series [1], the “cleavage by immunoblot, 6 hours post-induction” value is reported as “AvrRpt2 cleaved PBS1^RCS2 at 6 hours post-induction” and the “cleavage by immunoblot, 24 hours post-induction” value is given as “At 24 hours post-induction, AvrRpt2-induced cleavage was increased”.

B3: C122A (protease-deficient mutant form of AvrRpt2) fused to 5xMyc (protein)
chain: MKIAPVAINHSPLSREVPSHAAPTQAKQTNLQSEAGDLDARKSSASSPETRALLATKTVLGRHKIEVPAFGGWFKKKSSKHETGGSSANADSSSVASDSTEKPLFRLTHVPYVSQGNERMGAWYACARMVGHSVEAGPRLGLPELYEGREGPAGLQDFSDVERFIHNEGLTRVDLPDNERFTHEELGALLYKHGPIIFGWKTPNDSWHMSVLTGVDKETSSITFHDPRQGPDLAMPLDYFNQRLAWQVPHAMLYR
Take B3: in series [1], the “cleavage by immunoblot, 24 hours post-induction” value is given as “even C122A induced small amounts of cleavage”.

B4: TEV protease (NIa protease of Tobacco Etch Virus) fused to 5xMyc (protein)
chain: GESLFKGPRDYNPISSTICHLTNESDGHTTSLYGIGFGPFIITNKHLFRRNNGTLLVQSLHGVFKVKNTTTLQQHLIDGRDMIIIRMPKDFPPFPQKLKFREPQREERICLVTTNFQTKSMSSMVSDTSCTFPSSDGIFWKHWIQTKDGQCGSPLVSTRDGFIVGIHSASNFTNTNNYFTSVPKNFMELLTNQEAQQWVSGWRLNADSVLWGGHKVFMSKPEEPFQPVKEATQLMNELVYSQ
On to B4, for which, in series [2], the “cleavage by immunoblot, 6 hours post induction” value is “TEV protease cleaved PBS1^TCS 6 hours post induction”. In addition, the cleavage by immunoblot entry in series [3] is given as “TEV protease did not cleave wild-type PBS1”.
